Tested on: MS2 coat protein
Assay: apparent KD of MS2 coat protein; higher = weaker reporter binding
Conditions: Eterna round: R107
Description: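 RNA-MaP round R107: designed RNA switches with theophylline, tryptophan, arginine or FMN aptamers are transcribed on-chip within common flanks. They are titrated with SNAP-549-labelled MS2 coat protein in RNA-MaP buffer (100 mM Tris pH 7.5, 80 mM KCl, 4 mM MgCl2), without ligand or with the indicated ligand. Median apparent KD per design.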

[1] = input ligand: theophylline 20 uM
[2] = input ligand: tryptophan 2.4 mM
[3] = input ligand: theophylline 2 mM

| Sequence | apparent KD of MS2 coat protein (input ligand: arginine 13.2 mM) [µM] | apparent KD of MS2 coat protein [1] [µM] | apparent KD of MS2 coat protein [2] [µM] | apparent KD of MS2 coat protein (input ligand: none) [µM] | apparent KD of MS2 coat protein [3] [µM] |
| --- | --- | --- | --- | --- | --- |
| UCGUGUGUUUCGGAUACCAGUGAAAUCGAUACAUGAGGAUCACCCAUGUGAGAGGAUGUACACCCUUGGCAGCUGUCUGUAUCUG [asczmullin] | 0.0147 | 0.0168 | 0.0121 | – | – |
| GCACGACAUGAGGAUCACCCAUGUGCCGAUACCAGCCGGAUAUACGGCCCUUGGCAGCGGAGUGGAUCCGGAGGACCAUGGGUAA [Same State Theophylline A GF7] | 0.00216 | 0.156 | 0.0925 | 0.236 | 0.25 |
| AACAUCUGGCGUGAUACCAGCCACAUGAGGAUCACCCAUGUCAACACUCGCAAUUGCGACGGCCCUUGGCAGCACGCAUCCUCAG [Sorioncege] | 0.049 | 0.0348 | 0.0609 | – | – |
| UGACAUUGCUCAGAUACCAGACAUGAGGAUCACCCAUGUGCCAAAUAAACGUACAUAAAUGUCCCUUGGCAGCUGAGCAAUGUCU [TheoBX 11 #MS2Left #Theo2] | 0.0468 | 0.0875 | 0.0591 | – | – |
| UAUCCACAUGAGGAUCACCCAUGUAGGGAAGGAGCGGUGGUUGCACCAGGUAGGUCGCCUUGCUGAGGAUAACCGGUGGAAUCGU [Exclusion - Arginine A (Freestyle 28)] | 0.0328 | 0.0269 | 0.0311 | 0.0188 | 0.0336 |
| AAGACAUGAGGAUCACCCAUGUGUCAUGAAGGAGCGUCGGAAAUGACAGGUAGGUCGCAUGACCGUUGGCGCCGGAAACGGCGCA [SSAA #15] | 0.0238 | 0.0353 | 0.0235 | 0.0305 | 0.0333 |
| GUACGAGUUGACUGUGAGACUGGCGUGGAAGGAGCGCACGGAGGUGCAGGUAGGUCGCCACAUGAGGAUCACCCAUGUCGGGCCG [Qutigeveat] | 0.0193 | 0.0316 | 0.0267 | 0.0264 | 0.0401 |
| UAAAUACAUGAGGAUCACCCAUGUUUGGAUACCAGAUAUGACAUUAUCCCUUGGCAGCCAUUCGUUCCAAAUGCUAUUGUGAAGG [theeternabot_sameState_MS2_Theo_A_26] | 0.0206 | 0.0308 | 0.022 | – | – |
| AAUUUGUCGGGUGAUACCAGCCUCGGCGCAUCUCGCGCUGAACAUGAGGAUCACCCAUGUGGCCCUUGGCAGCACAUGACAAAUC [Veerdira] | 0.153 | 0.587 | 0.757 | – | – |
| CCUAUGCAGUCGGCCGCCACUGAACAUGAGGAUCACCCAUGUAAUUAAAAUUAUGAUCCUGAAAUCAGGACCGGGACUGUAUAGG [Ex Tryptophan B 5] | 0.0286 | 0.165 | – | – | 0.431 |
| GCACCAGGUACGGAUACCAGAGCAAGCCAAAUGAGUGACCAUGAGGAUCACCCAUGGUUGCUCCCUUGGCAGCCGUACCUGGUGC [ETB NP+V+V2 #13 Diff Apt, +-Same Structure] | 0.00728 | 0.0121 | 0.0109 | 0.012 | 0.079 |
| CUUCGCAUAGGAAAACUAUGUGAAGAAAAUCGAGGACCGGUACGGCCGCCACUCGUCCUCAACAUGAGGAUCACCCAUGUAAUAA [Mat - Exclusion - Trytophan A - D6] | 0.0173 | 0.0212 | – | – | 0.0204 |
| AGCGACAUGCGUGAUACCAGCUACAUGAGGAUCACCCAUGUCAGCAGGAAACUGCUGUGUAGCCCUUGGCAGCACAGUGCAUGUC [Exclusion - Theophylline B (Freestyle 28)] | 0.0129 | 0.0181 | 0.0138 | – | – |
| UUGGCAGCAUGGGUGGCUGCCAAGGCUGAUACCAGCCACGAAAGUGGCCCUUGGCAGCAGCAAACAUGAGGAUCACCCAUGUUAA [(T)''-(M)'-(T)'-(Theo)-(Ms2)_Design3] | 0.0872 | 0.105 | 0.0933 | 0.0863 | 0.104 |
| GGUGGCGUGACGGAUACCAGCCACCGCGGCAACGCAACAUGAGGAUCACCCAUGUUGGGUGGCCCUUGGCAGCUGUCGUGCGGCG [#1 Same State - Theophylline B Attempt #23 (HarryS)] | 0.0474 | 0.0793 | 0.0781 | 0.0862 | 0.0275 |
| GACCGAUUAUAGCACGAUUGUCUUGUGGAAGGAGCGCAGAGGGCUGCAGGUAGGUCGCCACAUGAGGAUCACCCAUGUCAGGAUA [Raanti] | 0.00457 | 0.0666 | 0.0466 | 0.06 | 0.0591 |
| GAUAUGGAAACAUGUCAGAUCCUUACCGGUCGAGGACCGGUACGGCCGCCACUCGAAAAUAAUAAACAUGAGGAUCACCCAUGUA [Ex Tryptophan A 16] | 0.017 | 0.0188 | – | – | 0.0175 |
| GUUGGAUACUCGGCCGCCACUGAGAGAGUCAUGUGAACAUGAGGAUCACCCAUGUAAUAUAUAUACAGGACCGGGAGUGUUGUAA [4.I] | 0.0203 | 0.0437 | – | – | 0.0325 |
| ACGCUGAUUGAUUACAAUCAGCGAAAAGAUACCAGUGGGUAAUCCCACCCUUGGCAGCUUAAAUAUGAGGAUCACCCAUAUGGUA [TheoAS 18 #MS2Right #BothOrNeither #AlternativeMS2] | 0.0546 | 0.155 | 0.0861 | 0.108 | 0.412 |

| Sequence | apparent KD of MS2 coat protein (input ligand: arginine 13.2 mM) [µM] | apparent KD of MS2 coat protein [1] [µM] | apparent KD of MS2 coat protein [2] [µM] | apparent KD of MS2 coat protein (input ligand: none) [µM] | apparent KD of MS2 coat protein [3] [µM] |
| --- | --- | --- | --- | --- | --- |
| AUUCAUGAAAACAUGACAUAGGGAUCACUCCGAGGACCGGUACGGCCGCCACUCGCGAGGAGGCACAUGAGGAUCACCCAUGUUA [SS Tryp A #3] | 0.0368 | 0.146 | 0.108 | 0.115 | 0.18 |
| AUUUUCGUAGGUUAAAGUUUAGAAACUGAAGGAGCGUGGUAUUACACAGGUAGGUCGCAGAUUUUACAUGAGGAUCACCCAUGUU [JR_ExcArginiA_Sub011] | 0.0149 | 0.0254 | 0.0177 | 0.022 | 0.0206 |
| AAACGUUGCUCAGAUACCAGACAUGAGGAUCACCCAUGUACCAAGGUACCCGAAAGGAAUGUCCCUUGGCAGCUGAGCAACGAAA [MAT - Exclusion Theophlline B - Mod of Eli - D21] | 0.0111 | 0.0119 | 0.0104 | – | – |
| AUCAUAAUAGCCUCGUGUAAUUAAAUGGAACGAGGACCGGUACGGCCGCCACUCGAUAUAAACAUGAGGAUCACCCAUGUAAGCA [JR_ExcTryptoA_Sub004] | 0.0305 | 0.0441 | – | – | 0.0582 |
| CCGUUUUAUGGCGACAUAGGGCGGACUGAAGGAGCGGUAAAACAGCCAGGUAGGUCGCAGAGAUCCACAUGAGGAUCACCCAUGU [!0.aC] | 0.0357 | 0.0432 | 0.0379 | 0.0391 | 0.0512 |
| AGUAACAUGAGGAUCACCCAUGUAUGAGAAGGAGCGUGUUUUAACACAGGUAGGUCGCUCAAUAUUAAUUUAUUAGAUACAUUUA [JR_SSArginiA_Sub006] | 0.0189 | 0.0451 | 0.0343 | 0.027 | 0.0368 |
| AGCACAUGAGGAUCACCCAUGUGUGGGUACCGAGGACCGGUACGGCCGCCACUCGCAGGACAUGAGGAUCACCCAUGUGCCGCCG [SSTA DOUBLE!!! :-D #7] | 0.0197 | 0.0332 | 0.0434 | 0.0305 | 0.0412 |
| ACAUGAGGAUCACCCAUGUUAAACAGGGUGCGAGGACCGGUACGGCCGCCACUCGGACAUUAUUACGAGUGAAUGGUAACGAUGU [#13 Exclusion Tryptophan A] | 0.0211 | 0.0336 | – | – | 0.0265 |
| AUAACAUGAGGAUCACCCAUGUAACCUGAAGGAGCGGACGAAAGUCCAGGUAGGUCGCAGGACUCCUUCAACAUGGGAGAGGGAG [SSArg-A #27 NuPack the Brourd] | 0.12 | 0.131 | 0.124 | 0.099 | 0.152 |
| UGAUGGUACGGAAGGAGCGUGUAAGAACAAGAACAUGAGGAUCACCCAUGUAUUAAUUUAACACAGGUAGGUCGCCGUGUUAUUG [11.H] | 0.0319 | 0.0358 | 0.016 | 0.0292 | 0.0547 |
| CUACAUUUGUAGAAACCGGUCACCAUUAUUCGAGGACCGGUACGGCCGCCACUCGUAUCAUGUGAUACAUGAGGAUCACCCAUGU [Tryptophan A 9] | 0.0273 | 0.0337 | – | – | 0.0455 |
| ACUAACUAUAGUGAUACCAGACGUACAUGAGGAUCACCCAUGUUACAUUCUUGGUUAAAAGUCCCUUGGCAGCACGAUAAGUUCG [JR_Nu_ExcTheophyB_Sub025] | 0.0097 | 0.0112 | 0.01 | – | – |
| AUAACAUGAGGAUCACCCAUGUAAGCAGAUACCAGCUAGGAAACUAGCCCUUGGCAGCUGCAUAGUGAUCCAUAUAUCUGCUAAU [(M1)-(M2)-(T1)-(T2)-(M)'-(T)'_Design8] | 0.0406 | 0.0805 | 0.0592 | – | – |
| UCUUUCUAUGUAGAUACCAGCAUGUUAUAUUUCUAAUGACAUGAGGAUCACCCAUGUAAAUGCCCUUGGCAGCUACAUUUUCUUU [SSTHB #4] | 0.0216 | 0.0223 | 0.0237 | – | – |
| UGGUGUAGGGUAAAUAGGAUUAGUACAGAAGGAGCGCGAAUAAACGCAGGUAGGUCGCUGGAAUAACAUGAGGAUCACCCAUGUC [Same State Arginine A GF 26] | 0.0196 | 0.0306 | 0.0278 | 0.0248 | 0.0262 |
| AGUCACAUGAGGAUCACCCAUGUGCCAGAACGAGGACCGGUACGGCCGCCACUCGAGGCGUCCGUCGACAAUAAUGUGAACUGCA [theeternabot_sameState_MS2_Trp_A_48] | 0.0111 | 0.0167 | – | – | 0.0116 |
| AGCGCAGGUCCUGAUACCAGUGACAUGAGGAUCACCCAUGUCCGAUGGGCCUGCCUCUGACACCCUUGGCAGCAGGGCUUGUGCU [#14 Exclusion-TheophyllineB] | 0.02 | 0.0498 | 0.0213 | – | – |
| ACGACGCAUAGUGAUACCAGUAGAACAUGAGGAUCACCCAUGUCUGUGGCGCACCACCUCUGCCCUUGGCAGCACUAUGCGUCAG [SSTheo B #9] | 0.0126 | 0.0174 | 0.0141 | – | – |

From the supplement of paper PMC9170038
